Experiment [1] has as its target spike protein of live SARS-CoV-2 (SARS-CoV-2, UniProt P0DTC2 14-1273). As to the kind of experiment: cell-based or functional assay.
Experiment [2] addresses T1, full length spike (S) protein of SARS-CoV-2 (SARS-CoV-2, UniProt P0DTC2 14-1273). The experiment in a line: cell-based or functional assay.
Experiment [3] has as its target recombinant RBD of the spike protein of SARS-CoV-2 (residues Arg319-Phe541) (SARS-CoV-2, UniProt P0DTC2 319-541). As to the kind of experiment: SPR, RBD on CM5 chip. (In general: In SPR one partner is held on a chip, and binding of the other changes the refractive index at the surface.)
Experiment [4] addresses spike protein on live SARS-CoV-2 (SARS-CoV-2, UniProt P0DTC2 14-1273). As to the kind of experiment: cell-based or functional assay.
In experiment [5] the target is spike (S) protein of live SARS-CoV-2 (SARS-CoV-2, UniProt P0DTC2 14-1273). The experiment in a line: cell-based or functional assay.
The target in experiment [6] is full length spike (S) protein of SARS-CoV-2 on pseudovirus (SARS-CoV-2, UniProt P0DTC2 14-1273). As to the kind of experiment: cell-based or functional assay.
For experiment [7], the target named is T1, full length spike (S) protein of …. The experiment in a line: cell-based or functional assay. The source holds these as a separate data set.

A value given as a limit tells only on which side of the number the result lay.

B1: P5A-1D1 (antibody, V domains shown)
VH: EVQLVESGGGLIQPGGSLRLSCAASGLTVSSNYMSWVRQAPGKGLEWVSVIYSGGSTYYADSVKGRFTISRDNSKNTLYLQMNSLRAEDTAVYYCARDLYYYGMDVWGQGTTVTVST
VL: DIQLTQSPSFLSASVGDRVTITCRASQGISSYLAWYQQKPGKAPKLLIYAASTLQSGVPSRFSGSGSGTDFTLTISSLQPEDFATYYCQQLNSYPTFGQGTRLEIKR
In the case of B1, the “Live virus IC50” value in experiment [1] came out at 0.0189 µg/mL.

B2: P1A-1C10 (antibody, V domains shown)
VH: QVQLVQSGAEVKNPGSSVKVSCKAGGGTSSFYDINWVRQAPGQGLEWIGKIIPRLDIADYAQKSQGRVTITADKSTSTVYLELSSLKSDDTAVYFCARGRPGSEWAYGPFDLWGQGTLVTVSS
VL: DIQMTQSPSTLSASVGDRVTITCRASQSSRAWLAWYQQKPGKAPKLLISKASSLESGVPSRFSGSGYGTEFTLTISSLQPDDSATYYCHQYNSSPFTFGPGTKVQIKR
notes: human IgG1, kappa
What is called Kd is the equilibrium constant for the complex coming apart. Regarding B2, in experiment [2], the “IC50, Pesudovirus neutralization” value was 21.5 µg/mL. Besides, the dissociation constant Kd in experiment [3] came out at 8.48 nM.

B3: P2C-1A3 (antibody, V domains shown)
VH: QVQLVESGGGLVKPGGSLRLSCAASGFTFSDYYMSWIRQAPGKGLEWVSYISSSGSTIYYADSVKGRFTISRDNAKNSLYLQMNSLRAEDTAVYYCARDFSHQQLVPSWGQGTLVTVSS
VL: not shown
B3: the “IC50, live SARS-CoV-2 focus reduction neutralization test (FRNT)” value in experiment [4] amounted to 0.28 µg/mL.

B4: P2C-1A3 (antibody, V domains shown)
VH: B3 VH
VL: not shown
Take B4: in experiment [5], the “Live virus IC50” value stood at 0.283 µg/mL and the “Live virus IC80” value worked out at 1.46 µg/mL. Also, in experiment [6], the “Pseudovirus IC50” value came out at 0.62 µg/mL and the “Pseudovirus IC80” value was 5.94 µg/mL.

B5: P5A-1C8 (antibody, human IgG1, kappa, V domains shown)
VH: QVQLVQSGAEVKKPGASVKVSCKASGYTFTSYYMHWVRQAPGQGLEWMGIINPSGGSTSYAQKFQGRVTMTRDTSTSTVYMELSSLRSEDTAVYYCARSARDYYDSSGYYYRAEYFQHWGQGTLVTVSS
VL: DIQMTQSPSSLSASVGDRVTITCQASQDISNYLNWYQQKPGKAPKLLIYDASNLETGVPSRFSGSGSGTDFTFTISSLQPEDIATYYCQQYDNLPSITFGQGTRLEIKR
Regarding B5, in experiment [7], the “IC50, pseudovirus neutralization” value was determined as 0.434 µg/mL.

B6: P5A-2E1 (antibody, human IgG1, lambda, V domains shown)
VH: EVQLVQSGAEVKKPGESLKISCKGSGYSFTSYWIGWVRQMPGKGLEWMGIIYPGDSDTRYSPSFQGQVTISADKSISTAYLQWSSLKASDTAMYYCAQTSVTRNWFDPWGQGTLVTVSS
VL: SYVLTQPPSVSVAPGKTARITCGGNNIGSKSVHWYQQKPGQAPVLVIYYDSDRPSGIPERFSGSNSGNTATLTISRVEAGDEADYYCQVWDSSSDHVVFGGGTKLTVLG
In the case of B6, the “IC50, pseudovirus neutralization” value in experiment [7] was found to be 6.97 µg/mL.

B7: P2C-1C10 (antibody, V domains shown)
VH: QVQLVQSGAEVKKPGSSVKVSCKASGGTFSSYAIIWVRQAPGQGLEWMGGIIPIFGTANYAQKFQGRVTITADESTSTAYMELSSLRSEDTAVYYCARVVTGYYFDYWGQGTLVTVSS
VL: EIVLTQSPATLSLSPGERATLSCRASQSVSSYLAWYQQKPGQAPRLLIYDASNRATGIPARFSGSGSGTDFTLTISSLEPEDFAVYYCQQRSNWPSFGQGTKLEIKR
Turning to B7, in experiment [5], the “Live virus IC50” value was determined as 11.1 µg/mL and the “Live virus IC80” value is over 50 µg/mL. For the same molecule, in experiment [6], the “Pseudovirus IC50” value is 2.62 µg/mL and the “Pseudovirus IC80” value came to 4.64 µg/mL.

B8: P5A-1D2 (antibody, human IgG1, lambda, V domains shown)
VH: EVQLVESGGGLIQPGGSLRLSCAASGFIVSSNYMSWVRQAPGKGLEWVSIIYSGGSTYYADSVKGRFTISRDNSNNTLYLQMNSLRAEDTAVYYCARALQVGATSDYFDYWGQGTLVTVSS
VL: QSVLTQPPSVSGAPGQRVTISCTGSSSNIGAGYDVHWYQQLPGTAPKLLIYGNSNRPSGVPDRFSGSKSGTSASLAITGLQAEDETDYYCQSCDSSLSVVVFGGGTKLTVLG
Take B8: the “IC50, pseudovirus neutralization” value in experiment [7] came to 0.035 µg/mL.

(Values after patent US20210292392A1 (TSB THERAPEUTICS BEIJING, published 2021).)
